Tested on: LPS-induced release of endogenous TNFα from human THP-1 macrophage cells
Experiment: TNFα release (shedding) assay, functional screen of hybridoma supernatants
Format: cell-based
Conditions: supernatants of monoclonal 4H8 sub-clones; assay as in Example 5
Source text: After 14 days of culture, supernatants of hybridoma cells were collected and—instead of being selected for iRhom2 binding antibodies—were subjected to an ELISA-based functional screen for iRhom2 activity-neutralizing antibodies. Since the crucial role of iRhom2 in TACE-mediated release of tumor necrosis factor alpha (TNFα) from macrophages is very well established (McIlwein et al., 2012, Adrain et al., 2012, Siggs et al., 2012), the human TNF-alpha DuoSet ELISA (R&D Systems, USA) was employed to compare the lipopolysaccharide (LPS)-induced release of endogenous TNFα from human THP-1 macrophage cells in the presence and absence of all 5280 peptide immunization-derived hybridoma supernatants.
In brief, on day 1, Nunc black MaxiSorp® 96-well plates (Thermo Fisher Scientific, USA) were coated overnight with 100 μl per well of mouse anti-human TNFα capture antibody (provided as part of the DuoSet ELISA kit) at 4 μg/m1 TBS at 4° C. […] Using an infinite M1000 PRO (Tecan Group, Switzerland) microplate reader, the fluorescence of each well was collected at an excitation wavelength of 435 nm and an emission wavelength of 555 nm.
In brief, cells of the hybridoma population 4H8 were counted and the dilution factor to end up with an average of two cells per well of 96-well plates was calculated. […]

B1: 4H8-E3: Mouse IgM monoclonal antibody against the human iRhom2 juxtamembrane domain adjacent to TMD1; HC VD SEQ ID NO 33, LC VD SEQ ID NO 40 (antibody, V domains shown)
VH: EVQLQQSGPELVKPGASVKISCKASGYTFTDYYMNWVKQSHGKSLEWIGDINPNNGGTSYNQKFKGKATLTVDKSSNTAYMEFRSLTSEDSAVYYCARRGYYGVDYWGQGTTLTVSS
VL: NIVMTQSPKSMSMSVGERVTLNCKASENVGTYVSWYQQKPEQSPKLLIFGASNRYTGVPDRFIGSGFATDFTLTISSVQAEDLADYHCGQSYSYPYTFGGGTKLEIK
modifications: IgM constant regions; antibody sequence
inhibitory effect of sub-clone supernatants on LPS-induced release of TNFα from THP-1 cells: significantly interfere

— patent US20220204610A1, “PROTEIN BINDERS FOR IRHOM2” (NEW YORK SOCIETY FOR THE RELIEF OF THE RUPTURED AND …, priority 2019, published 2022)
